In publication PMC4162137:

Key:
[1] = target: TMPRSS2-ERG8 encoded protein (Type II ERG) fused to an N- or C-terminal fragment of Venus (human); test: split reporter (BiFC, NanoBiT); BiFC with split Venus in HEK293 cells, 24 hours after transfection, percent of fluorescent cells counted by flow cytometry
[2] = target: TMPRSS2-ERG3 encoded protein (Type I ERG) fused to an N- or C-terminal fragment of Venus (human) (UniProt P11308)
[3] = target: TMPRSS2-ERG3 encoded protein (Type I ERG) fused to an N- or C-terminal fragment of Venus (human) (UniProt P11308); test: split reporter (BiFC, NanoBiT); BiFC with split Venus in HEK293 cells, 24 hours after transfection, percent of fluorescent cells counted by flow cytometry

TMPRSS2-ERG8 encoded protein (Type II ERG) fused to an N- or C-terminal fragment of Venus (human), sequence (P11308 whole entry, the tested form may be a part): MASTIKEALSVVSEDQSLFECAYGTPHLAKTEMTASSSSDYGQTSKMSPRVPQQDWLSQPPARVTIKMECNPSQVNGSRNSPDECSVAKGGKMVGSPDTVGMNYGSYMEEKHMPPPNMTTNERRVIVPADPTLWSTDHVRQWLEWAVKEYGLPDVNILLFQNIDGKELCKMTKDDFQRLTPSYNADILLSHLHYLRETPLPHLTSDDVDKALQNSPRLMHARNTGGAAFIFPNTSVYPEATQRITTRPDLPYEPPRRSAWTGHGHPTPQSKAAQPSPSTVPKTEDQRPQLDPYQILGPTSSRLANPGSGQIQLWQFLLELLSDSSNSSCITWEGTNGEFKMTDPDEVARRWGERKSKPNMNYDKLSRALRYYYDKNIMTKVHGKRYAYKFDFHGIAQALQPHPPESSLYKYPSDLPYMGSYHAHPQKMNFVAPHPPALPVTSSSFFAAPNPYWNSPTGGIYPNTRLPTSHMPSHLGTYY

percent of cells positive for fluorescence (% cells positive for fluorescence) [1]	mef2c enhancer luciferase reporter in HEK293 cells: 40 ng TM-ERG3 with 0-40 ng TM-ERG8 plasmid; reduction in luciferase activity against TM-ERG3 alone (at 20 ng or 40 ng TM-ERG8) (% reduction in luciferase activity) [2]	percent of cells positive for fluorescence (% positive cells) [1]	percent of cells positive for fluorescence (% cells positive for fluorescence) [3]	Substance
10.1	–	–	–	TMPRSS2-ERG3 encoded protein (Type I ERG) fused to an N- or C-terminal fragment of Venus (from UniProt P11308-4 33-479) (natural protein)
–	50	5.4	12.7	TMPRSS2-ERG8 encoded protein (Type II ERG) fused to an N- or C-terminal fragment of Venus (natural protein)
